Reference: patent US20170307612

Assays:
[1] = tested on: hemagglutinin of lowly pathogenic influenza virus H2N4
[2] = tested on: hemagglutinin of lowly pathogenic influenza virus H1N1_02
[3] = tested on: hemagglutinin of highly pathogenic influenza virus H5N1_01
[4] = tested on: hemagglutinin of lowly pathogenic influenza virus H7N7
[5] = tested on: hemagglutinin of lowly pathogenic influenza virus H3N8
[6] = tested on: hemagglutinin of lowly pathogenic influenza virus H1N1 (Experimental Example 4)
[7] = tested on: hemagglutinin of lowly pathogenic influenza virus H9N2_01
[8] = tested on: hemagglutinin of highly pathogenic influenza virus H5N6
[9] = tested on: hemagglutinin of lowly pathogenic influenza virus H7N9
[10] = tested on: hemagglutinin of lowly pathogenic influenza virus H9N2_02
[11] = tested on: hemagglutinin of lowly pathogenic influenza virus H2N1
[12] = tested on: hemagglutinin of lowly pathogenic influenza virus H3N2 (Experimental Example 4)
[13] = tested on: hemagglutinin of highly pathogenic influenza virus H5N1_02
[14] = tested on: hemagglutinin of lowly pathogenic influenza virus H9N2 (Experimental Example 4)
[15] = tested on: hemagglutinin of lowly pathogenic influenza virus H1N1_01

## furin
[1]
  fluorescence intensity of probe of Preparation Example 1, furin only, pH 5.5: 426
  fluorescence intensity of probe of Preparation Example 2, furin only, pH 5.5: 347
  fluorescence intensity of probe of Preparation Example 3, furin only, pH 5.5: 477
[2]
  fluorescence intensity of probe of Preparation Example 1, furin only, pH 5.5: 594
  fluorescence intensity of probe of Preparation Example 2, furin only, pH 5.5: 364
  fluorescence intensity of probe of Preparation Example 3, furin only, pH 5.5: 490
[3]
  fluorescence intensity of probe of Preparation Example 1, furin only, pH 5.5: 2840
  fluorescence intensity of probe of Preparation Example 2, furin only, pH 5.5: 4680
  fluorescence intensity of probe of Preparation Example 3, furin only, pH 5.5: 4330
[4]
  fluorescence intensity of probe of Preparation Example 1, furin only, pH 5.5: 432
  fluorescence intensity of probe of Preparation Example 2, furin only, pH 5.5: 401
  fluorescence intensity of probe of Preparation Example 3, furin only, pH 5.5: 575
[5]
  fluorescence intensity of probe of Preparation Example 1, furin only, pH 5.5: 399
  fluorescence intensity of probe of Preparation Example 2, furin only, pH 5.5: 442
  fluorescence intensity of probe of Preparation Example 3, furin only, pH 5.5: 313
[6]
  fluorescence intensity of probe of Example 4-1, furin only, pH 5.5: 3,721
  fluorescence intensity of probe of Example 4-2, furin only, pH 5.5: 3,955
  fluorescence intensity of probe of Example 4-3, furin only, pH 5.5: 4,344
[7]
  fluorescence intensity of probe of Preparation Example 1, furin only, pH 5.5: 353
  fluorescence intensity of probe of Preparation Example 2, furin only, pH 5.5: 443
  fluorescence intensity of probe of Preparation Example 3, furin only, pH 5.5: 461
[8]
  fluorescence intensity of probe of Preparation Example 1, furin only, pH 5.5: 2420
  fluorescence intensity of probe of Preparation Example 2, furin only, pH 5.5: 2720
  fluorescence intensity of probe of Preparation Example 3, furin only, pH 5.5: 2250
[9]
  fluorescence intensity of probe of Preparation Example 1, furin only, pH 5.5: 545
  fluorescence intensity of probe of Preparation Example 2, furin only, pH 5.5: 461
  fluorescence intensity of probe of Preparation Example 3, furin only, pH 5.5: 528
[10]
  fluorescence intensity of probe of Preparation Example 1, furin only, pH 5.5: 418
  fluorescence intensity of probe of Preparation Example 2, furin only, pH 5.5: 571
  fluorescence intensity of probe of Preparation Example 3, furin only, pH 5.5: 306
[11]
  fluorescence intensity of probe of Preparation Example 1, furin only, pH 5.5: 371
  fluorescence intensity of probe of Preparation Example 2, furin only, pH 5.5: 333
  fluorescence intensity of probe of Preparation Example 3, furin only, pH 5.5: 569
[12]
  fluorescence intensity of probe of Example 4-1, furin only, pH 5.5: 4,697
  fluorescence intensity of probe of Example 4-2, furin only, pH 5.5: 4,953
  fluorescence intensity of probe of Example 4-3, furin only, pH 5.5: 1,731
[13]
  fluorescence intensity of probe of Preparation Example 1, furin only, pH 5.5: 2130
  fluorescence intensity of probe of Preparation Example 2, furin only, pH 5.5: 4840
  fluorescence intensity of probe of Preparation Example 3, furin only, pH 5.5: 5000
[14]
  fluorescence intensity of probe of Example 4-1, furin only, pH 5.5: 3,134
  fluorescence intensity of probe of Example 4-2, furin only, pH 5.5: 3,703
  fluorescence intensity of probe of Example 4-3, furin only, pH 5.5: 4,218
[15]
  fluorescence intensity of probe of Preparation Example 1, furin only, pH 5.5: 492
  fluorescence intensity of probe of Preparation Example 2, furin only, pH 5.5: 374
  fluorescence intensity of probe of Preparation Example 3, furin only, pH 5.5: 327

## trypsin
[1]
  fluorescence intensity of probe of Preparation Example 1, trypsin only, pH 5.5: 4020
  fluorescence intensity of probe of Preparation Example 2, trypsin only, pH 5.5: 3090
  fluorescence intensity of probe of Preparation Example 3, trypsin only, pH 5.5: 3460
[2]
  fluorescence intensity of probe of Preparation Example 1, trypsin only, pH 5.5: 4550
  fluorescence intensity of probe of Preparation Example 2, trypsin only, pH 5.5: 4720
  fluorescence intensity of probe of Preparation Example 3, trypsin only, pH 5.5: 3150
[3]
  fluorescence intensity of probe of Preparation Example 1, trypsin only, pH 5.5: 2950
  fluorescence intensity of probe of Preparation Example 2, trypsin only, pH 5.5: 4000
  fluorescence intensity of probe of Preparation Example 3, trypsin only, pH 5.5: 3410
[4]
  fluorescence intensity of probe of Preparation Example 1, trypsin only, pH 5.5: 2600
  fluorescence intensity of probe of Preparation Example 2, trypsin only, pH 5.5: 2070
  fluorescence intensity of probe of Preparation Example 3, trypsin only, pH 5.5: 2510
[5]
  fluorescence intensity of probe of Preparation Example 1, trypsin only, pH 5.5: 3600
  fluorescence intensity of probe of Preparation Example 2, trypsin only, pH 5.5: 4070
  fluorescence intensity of probe of Preparation Example 3, trypsin only, pH 5.5: 3400
[6]
  fluorescence intensity of probe of Example 4-1, trypsin only, pH 5.5: 17,689
  fluorescence intensity of probe of Example 4-2, trypsin only, pH 5.5: 17,581
  fluorescence intensity of probe of Example 4-3, trypsin only, pH 5.5: 15,674
[7]
  fluorescence intensity of probe of Preparation Example 1, trypsin only, pH 5.5: 3750
  fluorescence intensity of probe of Preparation Example 2, trypsin only, pH 5.5: 4580
  fluorescence intensity of probe of Preparation Example 3, trypsin only, pH 5.5: 3510
[8]
  fluorescence intensity of probe of Preparation Example 1, trypsin only, pH 5.5: 2740
  fluorescence intensity of probe of Preparation Example 2, trypsin only, pH 5.5: 2760
  fluorescence intensity of probe of Preparation Example 3, trypsin only, pH 5.5: 2030
[9]
  fluorescence intensity of probe of Preparation Example 1, trypsin only, pH 5.5: 3990
  fluorescence intensity of probe of Preparation Example 2, trypsin only, pH 5.5: 4600
  fluorescence intensity of probe of Preparation Example 3, trypsin only, pH 5.5: 3250
[10]
  fluorescence intensity of probe of Preparation Example 1, trypsin only, pH 5.5: 3280
  fluorescence intensity of probe of Preparation Example 2, trypsin only, pH 5.5: 4720
  fluorescence intensity of probe of Preparation Example 3, trypsin only, pH 5.5: 3730
[11]
  fluorescence intensity of probe of Preparation Example 1, trypsin only, pH 5.5: 2210
  fluorescence intensity of probe of Preparation Example 2, trypsin only, pH 5.5: 2120
  fluorescence intensity of probe of Preparation Example 3, trypsin only, pH 5.5: 2060
[12]
  fluorescence intensity of probe of Example 4-1, trypsin only, pH 5.5: 19,192
  fluorescence intensity of probe of Example 4-2, trypsin only, pH 5.5: 16,812
  fluorescence intensity of probe of Example 4-3, trypsin only, pH 5.5: 16,362
[13]
  fluorescence intensity of probe of Preparation Example 1, trypsin only, pH 5.5: 2960
  fluorescence intensity of probe of Preparation Example 2, trypsin only, pH 5.5: 4540
  fluorescence intensity of probe of Preparation Example 3, trypsin only, pH 5.5: 4360
[14]
  fluorescence intensity of probe of Example 4-1, trypsin only, pH 5.5: 18,345
  fluorescence intensity of probe of Example 4-2, trypsin only, pH 5.5: 18,950
  fluorescence intensity of probe of Example 4-3, trypsin only, pH 5.5: 18,035
[15]
  fluorescence intensity of probe of Preparation Example 1, trypsin only, pH 5.5: 3350
  fluorescence intensity of probe of Preparation Example 2, trypsin only, pH 5.5: 4020
  fluorescence intensity of probe of Preparation Example 3, trypsin only, pH 5.5: 3720
